Patent US20220050116A1

Target: synthetic collagen peptides
Test: ELISA-like assay: biotin-labeled peptides titrated on plate-immobilized D-CHP, 4-parameter Hill fit

Kd: 10 to 270 nM
Substance: D-CHP, dimeric collagen hybridizing peptide [Ac-(GPO)6-G3]2-K-GK (designed binder)
